Key:
[1] = molecular target: Glycine receptor β subunit (native heteromeric GlyR, 4α:1β) (Sus scrofa, UniProt A0A4X1TUM3+Q6KBX4); assay: cryo-EM structure; assay type: binding
[2] = molecular target: recombinant pig GlyR α1 subunit without fluorophore (pig); assay: cryo-EM structure
[3] = molecular target: T1, recombinant pig GlyR α1 subunit without fluorophore (pig); assay: cryo-EM structure
T1 chain: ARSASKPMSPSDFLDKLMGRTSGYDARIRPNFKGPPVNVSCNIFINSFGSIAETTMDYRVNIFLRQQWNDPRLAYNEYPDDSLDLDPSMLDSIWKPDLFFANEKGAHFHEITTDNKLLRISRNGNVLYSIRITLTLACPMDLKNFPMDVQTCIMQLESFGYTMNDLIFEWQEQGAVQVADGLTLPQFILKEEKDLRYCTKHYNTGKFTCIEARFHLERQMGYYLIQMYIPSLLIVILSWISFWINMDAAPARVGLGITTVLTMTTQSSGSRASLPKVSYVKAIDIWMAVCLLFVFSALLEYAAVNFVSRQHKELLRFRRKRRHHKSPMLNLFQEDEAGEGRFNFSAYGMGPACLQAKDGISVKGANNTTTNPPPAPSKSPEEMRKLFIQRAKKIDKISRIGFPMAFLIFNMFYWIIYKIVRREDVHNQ

[4] = molecular target: T2, recombinant pig GlyR α1 subunit tagged with YFP (pig); assay: SEC
T2 chain: T1 chain

NCC(=O)O [glycine]
cryo-EM structure (2.7 Å) [1]: formed between the hydroxyl moiety of βY231 and the carboxyl group of glycine

recombinant pig GlyR β subunit without fluorophore (receptor)
stoichiometry N (α subunits per β subunit) [2]: 4

B1: anti-GlyR α 3D1 Fab (Fab, V domains shown)
VH: QVQLQQSGAELMKPGAAVKISCKATGHTISRYWIDWLKQRPGHGLEWIGEILPGSGSTNYNEKFKGKATFTAEKSSNTAYMQLSSLTSEDSAVYYCAMGVRGNYFDYWGQGTTLTVSS
VL: DIVMTQSHKFMSTSVGDRVSITCKASQDVSTAVAWYQQKPGQSPKLLIYWASTRHTGVPGRFTGSGSGTDYTLTISSVQAEDLSLYYCQQHYSTPRTFGGGTKLEIK
binding result [3]: binds
binding result [4]: binds

— article PMC8647860 (Nature, 2021)
